Positions count from the first letter of the chain named.
T1: peptide 6 (TIRC7 derived peptide)
T1 construct: also called Peptid6; Vol 6
T1 peptide: DLPDASVNGWSSDE

B1: chimeric Neliximab (antibody, V domains shown)
VH: EVQLQQSGPELVKPGASVKMSCKASGYTFTTYVMHWVKQKPGQGLEWIGYINPYNDGTNYNEKFKGKATLTSDKSSSTAYMELSTLTSEDSAVYYCAEFITKTVGGSNWYLDVWGAGTTVTVSS
VL: QIVLTQSPAIMSASPGEKVTMTCSASSSISYIHWFQQKPGTSPKRWIYDTSKLPSGVPARFSGSGSGTSYSLTISSMEAEDAATYYCHQRSSYTWTFGGGTKLEIKR
notes: Murine VH and VL joined to human gamma 1 (pConGamma1f vector) and human kappa (pConKappa vector) constant regions, made in NSO or CHO cells; also called chimeric antibody of clone 17-1; chimerized #17
B2: murine Neliximab (antibody, V domains shown)
VH: B1 VH
VL: B1 VL
notes: also called #17; Clone 17
B3: murine Metiliximab (antibody, V domains shown)
VH: EVQLQQSGPELVKPGASVKMSCKASGYTFTSYVIHWVKQKPGQGLEWIGYINPYNYDTKYNEKFKGEATLTSDKSSNTAYMELSSLTSEDSAVYYCAGFFTRAVGGSYWYLDVWGAGTTVTVSS
VL: B1 VL with P54V, S76N, E80A, S92A, Y93S
notes: also called #9; Clone 9

Molecular target: T1, peptide 6 (TIRC7 derived peptide)
Assay: solution equilibrium titration with peptide, free antibody by ELISA (method of Friquet et al 1985), Klotz plot

Kd [nM]	Binder
1	B1
1	B2
0.5	B3
